The text below walks through data of patent US20220184120A1 (MINERVA BIOTECHNOLOGIES, published 2022).

The target of assay [1] is T1, N-10 peptide (PSMGFR minus 10 amino acids from the N-terminus).
T1 construct: also called N-10 PSMGFR; PSMGFR N-10
T1 peptide: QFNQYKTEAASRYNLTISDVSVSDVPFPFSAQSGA
As to the kind of experiment: ELISA. A general note: ELISA stands for enzyme-linked immunosorbent assay.

Assay [2] concerns the target T2, N+9/C-9 peptide (9 amino acids added onto the N-terminus and 9 deleted from the C-terminus of PSMGFR).
T2 peptide: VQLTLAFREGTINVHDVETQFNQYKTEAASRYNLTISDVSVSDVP
Nature of the assay: ELISA (FIG. 66A).

Assay [3] addresses T3, PSMGFR peptide (Primary Sequence of the MUC1 Growth Factor Receptor).
T3 construct: synthetic peptide immobilised on ELISA plates; also called MUC1* peptide; MUC1* extra cellular domain peptide
T3 peptide: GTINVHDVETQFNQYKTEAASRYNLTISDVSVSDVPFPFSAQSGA
As to the kind of experiment: ELISA (FIG. 65).

In assay [4] the target is T4, C-10 peptide (PSMGFR minus 10 amino acids from the C-terminus).
T4 construct: also called C-10 PSMGFR; PSMGFR C-10
T4 peptide: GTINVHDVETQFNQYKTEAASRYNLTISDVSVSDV
Nature of the assay: ELISA.

The target in assay [5] is T5, N+20/C-27 peptide (20 amino acids added onto the N-terminus and 27 deleted from the C-terminus of PSMGFR).
T5 peptide: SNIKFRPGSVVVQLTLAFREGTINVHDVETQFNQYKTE
Nature of the assay: ELISA (FIG. 65A). An excerpt: The antibodies being tested were derived from animals immunized with the N+20/C−27 peptide. The first selection criteria was to confirm that the antibodies bound to the immunizing N+20/C−27 peptide. […] Although these antibodies were raised against the N+20/C−27 peptide, all but one, 45C11, still bind to the PSMGFR peptide. […] 1E4 was able to bind to the N+20/C−27 peptide, the PSMGFR and the N−10 peptide, consistent with the idea that its epitope must lie within the […] sequence. […] The color of the bars for each antibody in the ELISA graph are color coded to match the deductive cognate sequence, or a portion thereof, of that antibody.
This same ELISA assay was performed on the antibodies of the invention (FIG. 64-66 and FIG. 201). Note that only 20A10 exactly matches the binding profile of MNC2 and MNE6. 25E6, 28F9 and 18G12 are all able to bind to the N−10 peptide. 18B4 is the only antibody raised against the PSMGFR peptide that requires the 10 most N-terminal amino acids of the peptide. The color of the bars for each antibody in the ELISA graph are color coded to match the deductive cognate sequence, or a portion thereof, of that antibody. In addition, another set of antibodies was assayed by ELISA (FIG. 201). Of this set, B12, B2, B7, B9, 8C7F3, and H11 bound to the PSMGFR peptide, bound to the N−10 peptide, but not to the C−10 peptide (FIG. 201).

Assay [6] has as its target T6, N-10/C-5 peptide.
T6 peptide: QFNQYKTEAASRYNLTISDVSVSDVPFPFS
As to the kind of experiment: ELISA (FIG. 69). The protocol:
(§1) In order to further refine the epitopes to which each antibody binds, a series of smaller peptides derived from the PSMGFR sequence were synthesized: N−30 (SEQ ID NO:7), N−26 (SEQ ID NO:6), N−19 (SEQ ID NO:4), N−10/C−5 (SEQ ID NO:8), N−19/C−5 (SEQ ID NO:9). Each of the antibodies was tested in an ELISA assay for their ability to bind to this refined set of peptides, plus PSMGFR, N−10 and C−10 peptides (FIG. 67-69).

The target in assay [7] is T7, N-26 peptide.
T7 peptide: ISDVSVSDVPFPFSAQSGA
As to the kind of experiment: ELISA (FIG. 69). The method, then: as §1

Assay [8] concerns the target T8, N-19/C-5 peptide.
T8 peptide: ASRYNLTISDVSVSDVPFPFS
As to the kind of experiment: ELISA (FIG. 69). The method, then: as §1

Assay [9] has as its target T4, C-10 peptide (PSMGFR minus 10 amino …). Nature of the assay: ELISA (FIG. 69). The method, then: as §1
In assay [10] the target is T9, N-30 peptide.
T9 peptide: SVSDVPFPFSAQSGA
Nature of the assay: ELISA (FIG. 69). The protocol:
as §1

Assay [11] deals with T10, N-19 peptide.
T10 peptide: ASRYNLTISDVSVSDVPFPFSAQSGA
As to the kind of experiment: ELISA (FIG. 69). The protocol: as §1

The target of assay [12] is T2, N+9/C-9 peptide (9 amino acids added …). Nature of the assay: ELISA.

B1: 3C5 mouse monoclonal antibody (antibody, V domains shown)
VH: QIQLVQSGPELKKPGETVKISCKASGYTFTNYGMNWVKQAPGKGLKWMGWINTYTGKPTYADDFKGRFAFSLETSASTAYLQINNLKNEDTATYFCARGGLDGYYGYWGQGTTLTVSS
VL: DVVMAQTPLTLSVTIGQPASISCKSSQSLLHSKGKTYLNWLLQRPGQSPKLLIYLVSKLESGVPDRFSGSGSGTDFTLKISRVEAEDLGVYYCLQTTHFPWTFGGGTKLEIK
notes: raised against N+9/C-9; also called N+9/C-9 antibody 3C5
With B1, the figures for the binding result in [1] and in assay [2] were “no binding” and “binds”, respectively.

B2: 1E4 mouse monoclonal antibody (antibody, V domains shown)
VH: QVQLQQSGAELVRPGSSVKISCKASGYAFSTYWMNWVKQRPGQGLEWIGQIYPGDSDTNYNGKFKGKATLTADKSSNTAYMQLSSLTSEDSAVFFCARGNHASMDYWGQGTSVTVSS
VL: DVVMTQTPLSLPVSLGDQASISCRSSQSLVHSNGNTYLHWYLQKPGQSPKLLIYKVSNRFSGVPDRFSGSGSGTDFTLKISRVEAEDLGVYFCSQKTHVPWTFGGGTKLEIK
notes: raised against N+20/C-27; also called MN-1E4; N+20/C-27 antibody 1E4
Regarding B2, the binding result in assay [3], in assay [4], in assay [1] and in [5] was “binds” in each case.

B3: 39H5 mouse monoclonal antibody (antibody, V domains shown)
VH: QIQLVQSGPELKKPGETVKISCKASGYTFTNYGMNWVKQAPGKGLKWMGWINTYTGEPTYVGDFKGRFAFSLETSASTAYLQINNLKNEDTATYFCVRGIHGYVDYWGQGTTLTVSS
VL: DVLMTQTPLSLPVSLGDQASISCRSSQSIVHRNGNTYLEWYLQKPGQSPKLLIYKVSNRFSGVPDRFSGSGSGTDFTLKISRVEAEDLGVYYCFQGSHLPWTFGGGTKLEIK
notes: raised against N+9/C-9; also called N+9/C-9 antibody 39H5
In the case of B3, the binding result in assay [6], in [7], in [8], in [9], in assay [10] and in assay [11] was “no binding” each time. Further, the binding result in assay [12] was “binds”.
